Experimental data reported in article PMC10196373, “Conformational analysis and interaction of the Staphylococcus aureus transmembrane peptidase AgrB with its AgrD propeptide substrate” (Frontiers in Chemistry, 2023).

Assays:
[1] = molecular target: T1, AgrB1 with C-terminal SmBiT (agrBCS) (Staphylococcus aureus, UniProt P0C1P7 1-189); assay: split reporter (BiFC, NanoBiT); live S. aureus SH1000 cells; one tagged fusion on the chromosome (attB2), the other on a low copy plasmid, both from the agr P2 promoter; cells at OD600 1.0, Nano-Glo live cell reagent (furimazine), bioluminescence (RLU); settings: partners not purified
T1 construct: AgrB1, transmembrane peptidase of S. aureus agr group 1; agrB1 gene amplified with its upstream P2 promoter; A 16 amino acid flexible linker joins AgrB and SmBiT; also called AgrB-SmBiT; pSK-P2-agrBCS; source: S. aureus SH1000, from the agr P2 promoter, chromosomal (attB2) or on low copy plasmid pSK5630, in live cells; not shown: SmBiT (NanoBiT), C-terminal, kept
T1 sequence: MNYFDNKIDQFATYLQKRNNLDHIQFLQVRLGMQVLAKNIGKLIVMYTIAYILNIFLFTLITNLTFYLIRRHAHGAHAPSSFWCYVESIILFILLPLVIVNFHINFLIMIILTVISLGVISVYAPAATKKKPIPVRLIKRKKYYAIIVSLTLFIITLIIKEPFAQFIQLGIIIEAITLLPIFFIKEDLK

[2] = molecular target: the molecule itself; assay: new band of the complex on Tris-glycine gel, Western blot; purified AgrB with DOPG (1 mg/mL) incubated with T7-AgrD1 (2 uM) 30 min at 37 C in 20 mM Tris-HCl pH 7.5, 5 mM MgSO4; heated to 55 C for 5 min in SDS sample buffer, 14% Tris-glycine gel without SDS; blots probed with an AgrB nanobody or an anti-T7 antibody

Row | Binder | luminescent signal relative to the other constructs [1] [times] | binding result [2]
1 | MNTLFNLFFDFITGILKNIGNIAAYSTCDFIMDEVEVPKELTQLHE (AgrD1 pro-peptide of S. aureus agr group 1; PCR-amplified agrD1 put in place of agrB1 in the split luciferase plasmid; A 16 amino acid flexible linker joins AgrD and LgBiT; also called pAgrDCL; AgrD-LgBit; source: S. aureus SH1000, from the agr P2 promoter on low copy plasmid pSK5630, in live cells; not shown: LgBiT (NanoBiT), C-terminal, kept) [AgrD1 with C-terminal LgBiT (agrDCL)] | > 10 | –
2 | MNTLFNLFFDFITGILKNIGNIAAYSTCDFIMDEVEVPKELTQLHE (AgrD1 pro-peptide of S. aureus agr group 1; also called AgrD-T7; T7-tagged AgrD; source: synthetic peptide (solid phase synthesis), bought: CS Bio) [T7-AgrD1, AIP pro-peptide AgrD1 with a 14 residue T7 epitope leader tag] | – | binds
